Assay: in vivo
Design: species or system mice
Conditions: male, NODSCID 1L2RγKO, mouse, iv, total radioactivity

Work on COc1ccc(CCCC(=O)NCC(=O)N[C@@H](CCCCNC(=O)CN2CCN(CC(=O)O)CCN(CC(=O)O)CCN(CC(=O)O)CC2)C(=O)NC[C@H]2CC[C@H](C(=O)N[C@@H](Cc3c4ccccc4cc4ccccc34)C(=O)NCCCC[C@H](NC(=O)N[C@@H](CCCC(=O)O)C(=O)O)C(=O)O)CC2)cc1 [177Lu-HTK03170, metal not drawn] yielded a tissue uptake at 1 h (Adrenal glands uptake) of 3.34 ± 0.45 %ID/g, a tissue uptake at 4 h (Adrenal glands uptake) of 1.78 ± 0.45 %ID/g and a tissue uptake at 24 h (Adrenal glands uptake) of 0.5 ± 0.16 %ID/g. For the same compound, the tissue uptake at 72 h (Adrenal glands uptake) was 0.27 ± 0.11 %ID/g, the tissue uptake at 120 h (Adrenal glands uptake) was 0.22 ± 0.18 %ID/g and the tissue uptake at 1 h (Blood uptake) was 16.9 ± 1.97 %ID/g. The tissue uptake at 4 h (Blood uptake) was 8.34 ± 1.67 %ID/g, the tissue uptake at 24 h (Blood uptake) was 0.59 ± 0.13 %ID/g and the tissue uptake at 72 h (Blood uptake) was 0.06 ± 0.02 %ID/g. The tissue uptake at 120 h (Blood uptake) was 0.02 ± 0.01 %ID/g, the tissue uptake at 1 h (Bone uptake) was 0.89 ± 0.27 %ID/g and the tissue uptake at 4 h (Bone uptake) was 0.45 ± 0.13 %ID/g. For the same compound, the tissue uptake at 24 h (Bone uptake) was 0.06 ± 0.04 %ID/g, the tissue uptake at 72 h (Bone uptake) was 0.03 ± 0.02 %ID/g and the tissue uptake at 120 h (Bone uptake) was 0.02 ± 0.01 %ID/g. It also gave a tissue uptake at 1 h (Brain uptake) of 0.23 ± 0.04 %ID/g, a tissue uptake at 4 h (Brain uptake) of 0.13 ± 0.03 %ID/g and a tissue uptake at 24 h (Brain uptake) of 0.02 ± 0.01 %ID/g. For the same compound, the tissue uptake at 72 h (Brain uptake) was 0.01 %ID/g, the tissue uptake at 1 h (Fat uptake) was 1.38 ± 0.45 %ID/g and the tissue uptake at 4 h (Fat uptake) was 0.6 ± 0.13 %ID/g. The tissue uptake at 24 h (Fat uptake) was 0.12 ± 0.04 %ID/g, the tissue uptake at 72 h (Fat uptake) was 0.04 ± 0.02 %ID/g and the tissue uptake at 120 h (Fat uptake) was 0.03 ± 0.03 %ID/g. For the same compound, the tissue uptake at 1 h (Heart uptake) was 3.6 ± 0.52 %ID/g, the tissue uptake at 4 h (Heart uptake) was 1.91 ± 0.4 %ID/g and the tissue uptake at 24 h (Heart uptake) was 0.26 ± 0.04 %ID/g. For the same compound, the tissue uptake at 72 h (Heart uptake) was 0.09 ± 0.03 %ID/g, the tissue uptake at 120 h (Heart uptake) was 0.04 ± 0.02 %ID/g and the tissue uptake at 1 h (Intestine uptake) was 1.19 ± 0.25 %ID/g. It also gave a tissue uptake at 4 h (Intestine uptake) of 0.61 ± 0.17 %ID/g, a tissue uptake at 24 h (Intestine uptake) of 0.18 ± 0.07 %ID/g and a tissue uptake at 72 h (Intestine uptake) of 0.14 ± 0.11 %ID/g. For the same compound, the tissue uptake at 120 h (Intestine uptake) was 0.04 ± 0.03 %ID/g, the tissue uptake at 1 h (Kidneys uptake) was 13.2 ± 1.87 %ID/g and the tissue uptake at 4 h (Kidneys uptake) was 9.23 ± 2.18 %ID/g. The tissue uptake at 24 h (Kidneys uptake) was 5.8 ± 1.24 %ID/g, the tissue uptake at 72 h (Kidneys uptake) was 2.56 ± 0.62 %ID/g and the tissue uptake at 120 h (Kidneys uptake) was 1.3 ± 0.55 %ID/g. The tissue uptake at 1 h (Lacrimal uptake) was 0.27 ± 0.08 %ID/g, the tissue uptake at 4 h (Lacrimal uptake) was 0.15 ± 0.07 %ID/g and the tissue uptake at 24 h (Lacrimal uptake) was 0.04 ± 0.03 %ID/g. The tissue uptake at 72 h (Lacrimal uptake) was 0.01 ± 0.01 %ID/g, the tissue uptake at 1 h (Liver uptake) was 2.67 ± 0.37 %ID/g and the tissue uptake at 4 h (Liver uptake) was 1.89 ± 0.69 %ID/g. For the same compound, the tissue uptake at 24 h (Liver uptake) was 0.69 ± 0.27 %ID/g, the tissue uptake at 72 h (Liver uptake) was 0.36 ± 0.13 %ID/g and the tissue uptake at 120 h (Liver uptake) was 0.23 ± 0.13 %ID/g. For the same compound, the tissue uptake at 1 h (Lungs uptake) was 8.06 ± 1.48 %ID/g, the tissue uptake at 4 h (Lungs uptake) was 4.35 ± 0.82 %ID/g and the tissue uptake at 24 h (Lungs uptake) was 0.72 ± 0.19 %ID/g. It also gave a tissue uptake at 72 h (Lungs uptake) of 0.18 ± 0.04 %ID/g, a tissue uptake at 120 h (Lungs uptake) of 0.06 ± 0.03 %ID/g and a tissue uptake at 1 h (Muscle uptake) of 1.15 ± 0.19 %ID/g. For the same compound, the tissue uptake at 4 h (Muscle uptake) was 0.58 ± 0.13 %ID/g, the tissue uptake at 24 h (Muscle uptake) was 0.08 ± 0.02 %ID/g and the tissue uptake at 72 h (Muscle uptake) was 0.02 ± 0.01 %ID/g. For the same compound, the tissue uptake at 120 h (Muscle uptake) was 0.01 ± 0.01 %ID/g, the tissue uptake at 1 h (Pancreas uptake) was 1.41 ± 0.31 %ID/g and the tissue uptake at 4 h (Pancreas uptake) was 0.74 ± 0.18 %ID/g. The tissue uptake at 24 h (Pancreas uptake) was 0.12 ± 0.03 %ID/g, the tissue uptake at 72 h (Pancreas uptake) was 0.04 ± 0.01 %ID/g and the tissue uptake at 120 h (Pancreas uptake) was 0.02 ± 0.02 %ID/g. For the same compound, the tissue uptake at 1 h (Salivary uptake) was 2.43 ± 0.33 %ID/g, the tissue uptake at 4 h (Salivary uptake) was 1.31 ± 0.3 %ID/g and the tissue uptake at 24 h (Salivary uptake) was 0.28 ± 0.04 %ID/g. It also gave a tissue uptake at 72 h (Salivary uptake) of 0.11 ± 0.03 %ID/g, a tissue uptake at 120 h (Salivary uptake) of 0.05 ± 0.04 %ID/g and a tissue uptake at 1 h (Seminal uptake) of 1.22 ± 0.4 %ID/g. It also gave a tissue uptake at 4 h (Seminal uptake) of 0.49 ± 0.1 %ID/g, a tissue uptake at 24 h (Seminal uptake) of 0.08 ± 0.02 %ID/g and a tissue uptake at 72 h (Seminal uptake) of 0.04 ± 0.01 %ID/g. It also gave a tissue uptake at 120 h (Seminal uptake) of 0.02 ± 0.01 %ID/g, a tissue uptake at 1 h (Spleen uptake) of 1.64 ± 0.83 %ID/g and a tissue uptake at 4 h (Spleen uptake) of 0.96 ± 0.29 %ID/g. The tissue uptake at 24 h (Spleen uptake) was 0.45 ± 0.1 %ID/g, the tissue uptake at 72 h (Spleen uptake) was 0.38 ± 0.15 %ID/g and the tissue uptake at 120 h (Spleen uptake) was 0.49 ± 0.38 %ID/g. For the same compound, the tissue uptake at 1 h (Stomach uptake) was 0.59 ± 0.12 %ID/g, the tissue uptake at 4 h (Stomach uptake) was 0.42 ± 0.15 %ID/g and the tissue uptake at 24 h (Stomach uptake) was 0.25 ± 0.13 %ID/g. The tissue uptake at 72 h (Stomach uptake) was 0.28 ± 0.33 %ID/g, the tissue uptake at 120 h (Stomach uptake) was 0.05 ± 0.08 %ID/g and the tissue uptake at 1 h (Tail uptake) was 6.11 ± 3.05 %ID/g. It also gave a tissue uptake at 4 h (Tail uptake) of 2.66 ± 0.9 %ID/g, a tissue uptake at 24 h (Tail uptake) of 0.31 ± 0.06 %ID/g and a tissue uptake at 72 h (Tail uptake) of 0.19 ± 0.12 %ID/g. For the same compound, the tissue uptake at 120 h (Tail uptake) was 0.08 ± 0.06 %ID/g, the tissue uptake at 1 h (Testes uptake) was 2.17 ± 0.32 %ID/g and the tissue uptake at 4 h (Testes uptake) was 1.83 ± 0.58 %ID/g. It also gave a tissue uptake at 24 h (Testes uptake) of 0.64 ± 0.53 %ID/g, a tissue uptake at 72 h (Testes uptake) of 0.24 ± 0.04 %ID/g and a tissue uptake at 120 h (Testes uptake) of 0.14 ± 0.06 %ID/g. For the same compound, the tissue uptake at 1 h (Thyroid uptake) was 2.9 ± 0.41 %ID/g, the tissue uptake at 4 h (Thyroid uptake) was 1.62 ± 0.42 %ID/g and the tissue uptake at 24 h (Thyroid uptake) was 0.37 ± 0.06 %ID/g. For the same compound, the tissue uptake at 72 h (Thyroid uptake) was 0.15 ± 0.01 %ID/g, the tissue uptake at 120 h (Thyroid uptake) was 0.08 ± 0.05 %ID/g and the tissue uptake at 1 h (Tumor uptake) was 27.2 ± 7.55 %ID/g. It also gave a tissue uptake at 4 h (Tumor uptake) of 47.6 ± 13.5 %ID/g, a tissue uptake at 24 h (Tumor uptake) of 57.2 ± 15.3 %ID/g and a tissue uptake at 72 h (Tumor uptake) of 59.3 ± 16 %ID/g. The tissue uptake at 120 h (Tumor uptake) was 61.9 ± 22.3 %ID/g.
